T1: mCD40 (Mus musculus, UniProt P27512)
T1 sequence (P27512 20-289): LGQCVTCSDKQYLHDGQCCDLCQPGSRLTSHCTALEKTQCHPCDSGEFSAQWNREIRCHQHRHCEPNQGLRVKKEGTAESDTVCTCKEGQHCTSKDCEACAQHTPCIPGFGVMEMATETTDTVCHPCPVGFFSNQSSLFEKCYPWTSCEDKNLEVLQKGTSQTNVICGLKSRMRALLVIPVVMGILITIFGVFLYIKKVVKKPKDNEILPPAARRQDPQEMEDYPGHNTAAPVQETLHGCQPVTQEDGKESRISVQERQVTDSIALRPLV

T2: mPD1 on the surface of EL4 cells (Mus musculus, UniProt Q02242)
T2 construct: EL4 are a mouse lymphoma cell line which expresses PD1 on its cell surface; endogenous in cells; host or cells: EL4 mouse lymphoma cells
T2 sequence (Q02242 25-288): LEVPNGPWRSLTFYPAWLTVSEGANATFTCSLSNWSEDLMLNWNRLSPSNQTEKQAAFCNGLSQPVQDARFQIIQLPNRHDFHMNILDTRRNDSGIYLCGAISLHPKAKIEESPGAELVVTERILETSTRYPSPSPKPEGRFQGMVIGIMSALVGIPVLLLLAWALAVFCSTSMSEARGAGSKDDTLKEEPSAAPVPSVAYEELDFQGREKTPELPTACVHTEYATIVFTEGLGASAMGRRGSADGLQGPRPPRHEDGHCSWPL

T3: PD1 on mouse EL4 cells (Mus musculus, UniProt Q02242)
T3 construct: EL4 are a mouse lymphoma cell line which expresses PD1 on its cell surface; endogenous in cells; host or cells: EL4 mouse lymphoma cells
T3 sequence (Q02242 25-288): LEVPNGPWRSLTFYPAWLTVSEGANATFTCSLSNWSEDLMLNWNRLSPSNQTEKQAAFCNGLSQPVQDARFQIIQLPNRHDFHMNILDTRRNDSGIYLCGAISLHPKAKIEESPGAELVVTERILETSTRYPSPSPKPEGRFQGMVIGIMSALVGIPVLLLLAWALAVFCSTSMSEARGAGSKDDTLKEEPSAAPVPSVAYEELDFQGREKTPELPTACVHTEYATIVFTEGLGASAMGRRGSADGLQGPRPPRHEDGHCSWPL

T4: mPD1 (Mus musculus, UniProt Q02242)
T4 construct: purchased Rndsystems
T4 sequence (Q02242 25-288): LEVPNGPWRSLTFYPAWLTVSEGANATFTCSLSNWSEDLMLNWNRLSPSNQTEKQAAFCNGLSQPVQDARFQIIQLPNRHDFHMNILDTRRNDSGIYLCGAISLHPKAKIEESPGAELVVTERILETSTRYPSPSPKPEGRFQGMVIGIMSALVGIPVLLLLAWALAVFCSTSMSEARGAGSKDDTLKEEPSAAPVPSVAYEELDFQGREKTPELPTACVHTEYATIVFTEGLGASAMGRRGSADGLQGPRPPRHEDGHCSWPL


How the values were obtained:
[1] = test system: anti-mCD40L antibody; assay: CD40 ELISA binding assay of supernatants, detection by antibody; details: clarified supernatant
[2] = molecular target: T1, mCD40; assay: CD40 ELISA binding assay of supernatants; details: clarified supernatant
[3] = CD40 ELISA binding assay, control coatings; details: clarified supernatant
[4] = molecular target: T2, mPD1 on the surface of EL4 cells; assay: PDL1 competition assay on EL4 cells (flow cytometry); format: cell-based; details: PDL1 0, 5, 10 and 30 μg/mL
Procedure: Next, a competition assay was conducted to determine whether PDL1 could inhibit the binding of the anti-PD1-scFv secreted by the genetically engineered bacteria from binding to murine PD1. EL4 cells were grown and flow cytometry protocol was conducted essentially as described above except that PDL1 was added at various concentrations (0, 5, 10, and 30 μg/mL) during the incubation of the secreted anti-PD1-scFv-V5. Rat-IgG was used as a negative control of secreted scFv.

[5] = molecular target: T3, PD1 on mouse EL4 cells; assay: Flow cytometry, binding of anti-PD1-scFv to EL4 cells; format: cell-based
Procedure: To determine whether anti-PD1-scFv expressed in E. coli binds to surface PD1 on mouse EL4 cells, flow cytometric analysis was performed using EL4 cells. EL4 are a mouse lymphoma cell line which expresses PD1 on its cell surface.
EL4 cells were grown in Dulbecco's Modified Eagle's Medium (DMEM) with 10% FBS. Cells were spun down, supernatant was aspirated, pellet was resuspended in 1 ml D-PBS, transferred into chilled assay tubes (1×10^6 cells), and washed 2-3 times in D-PBS with 0.5% BSA. Cells were resuspended in PBS with 0.5% BSA, to which the purified scFv-V5 and anti-V5-FITC antibody were added and incubated for 1 hour at room temperature. Negative control left out scFv-V5. Cells were resuspended in 0.5 ml PBS and analyzed on a flow cytometer.
EL4 are a mouse lymphoma cell line which expresses PD1 on its cell surface.
EL4 cells were grown in Dulbecco's Modified Eagle's Medium (DMEM) with 10% FBS and 1% Penicillin-Streptomycin Cells were spun down, supernatant was aspirated, pellet was resuspended in 1 ml D-PBS, transferred into chilled assay tubes (1×10^6 cells), and washed 3 times in D-PBS. Cells were resuspended in D-PBS with 0.5% BSA, to which the purified scFv-V5 and anti-V5-FITC antibody were added and incubated for 1 hour at room temperature. Negative control left out secreted J43-scFv-V5. Cells were then resuspended in 0.5 ml PBS and analyzed on a flow cytometer. Results are shown in (FIG. 20).

[6] = molecular target: T4, mPD1; assay: ELISA binding assay of bacterial extracts (J43-scFv); details: α-V5-HRP
Procedure: (§1) E. coli comprising either tet-inducible J43-Anti-PD1-scFv-V5 or wild type controls were grown overnight in LB medium. […] Same amount of tetracycline was added to wild type control cultures.
(§2) To determine whether the single-chain antibody purified from E. coli DH5α functionally binds to the target protein, PD1, an ELISA assay was performed.

[7] = ELISA binding assay of bacterial extracts (J43-scFv), control coatings; details: α-V5-HRP
Procedure: as §1, §2

Molecule	ELISA signal, coating Anti-mCD40L [1]	ELISA signal, coating mCD40 [2]	ELISA signal, coating IgG [3]	ELISA signal, coating PBS [3]	Competition of PDL1 against binding of secreted scFv [4]	Binding to EL4 cells ([5]; purified scFv with anti-V5-FITC, two batches)	Staining of EL4 cells ([5]; secreted scFv 0, 2, 5 and 15 μL)	Binding to EL4 cells ([5]; secreted scFv with anti-V5-FITC)	ELISA signal at 450 nm, mPD1 coating ([6]; bacterial extract (1/2))	ELISA signal at 450 nm, mPD1 coating ([6]; bacterial extract)	ELISA signal at 450 nm, IgG coating ([7]; bacterial extract (1/2))	ELISA signal at 450 nm, PBS coating ([7]; bacterial extract (1/2))	ELISA signal at 450 nm, IgG coating ([7]; bacterial extract)	ELISA signal at 450 nm, PBS coating ([7]; bacterial extract)
Secreted CD40-L2: soluble form of murine CD40L secreted by SYN3367, in clarified supernatant (protein, left off: small tags and cut ends) MQRGDEDPQIAAHVVSEANSNAASVLQWAKKGYYTMKSNLVMLENGKQLTVKREGLYYVYTQVTFCSNREPSSQRPFIVGLWLKPSSGSERILLKAANTHSSSQLCEQQSVHLGGVFELQAGASVFVNVTEASQVIHRVGFSSFGLLKL	0.825	0.639	0.052	0.05	–	–	–	–	–	–	–	–	–	–
J43-scFv-V5: single-chain variable fragment based on J43 monoclonal antibody against mouse PD-1, V5 and HIS tagged, expressed in E. coli (protein) scFv: MQLEVRLLESGGGLVKPEGSLKLSCVASGFTFSDYFMSWVRQAPGKGLEWVAHIYTKSYNYATYYSGSVKGRFTISRDDSRSMVYLQMNNLRTEDTATYYCTRDGSGYPSLDFWGQGTQVTVSSGGGGSGGGGSGGGGSYELTQPPSASVNVGETVKITCSGDQLPKYFADWFHQRSDQTILQVIYDDNKRPSGIPERISGSSSGTTATLTIRDVRAEDEGDYYCFSGYVDSDSKLYVFGSGTQLTVLGKGELNSKLEGKPIPNPLLGLDSTRTGHHHHHH	–	–	–	–	competed in a dose dependent manner	population shift	dose-dependent staining	population shift	0.90	1.41	0.11	0.10	0.13	0.11
Secreted CD40-L1: extracellular portion of murine CD40L secreted by SYN3366, in clarified supernatant (protein, left off: small tags and cut ends, extracellular portion of murine CD40L secreted by SYN3366, in clarified supernatant) HRRLDKVEEEVNLHEDFVFIKKLKRCNKGEGSLSLLNCEEMRRQFEDLVKDITLNKEEKKENSFEMQRGDEDPQIAAHVVSEANSNAASVLQWAKKGYYTMKSNLVMLENGKQLTVKREGLYYVYTQVTFCSNREPSSQRPFIVGLWLKPSSGSERILLKAANTHSSSQLCEQQSVHLGGVFELQAGASVFVNVTEASQVIHRVGFSSFGLLKL	0.394	0.231	0.052	0.049	–	–	–	–	–	–	–	–	–	–

From US11471494B2, “Microorganisms programmed to produce immune modulators and anti-cancer therapeutics in tumor cells” (Synlogic Operating Company, Inc., priority 2017, dated 2022)
